Data reported in US20230242651A1 (published 2023).
Substitutions are numbered along the chain they refer to.

B1: Vκ3/VH3 consensus λ-capped, human IL23R specific scFv (scFv)
scFv: DIVLTQSPATLSLSPGERATLSCQASENIYSFLAWYQQKPGQAPRLLIYSASKLAAGVPARFSGSGSGTDFTLTISSLEPEDFAVYYCQQTNRYSNPDIYNVFGGGTKLTVLGGGGGSGGGGSGGGGSGGGGSEVQLVESGGGLVQPGGSLRLSCAASGIDFNSNYYMCWVRQAPGKGLEWVSCIYVGSHVNTYYANWAKGRFTISRDNSKNTLYLQMNSLRAEDTAVYYCATSGSSVLYFKFWGQGTLVTVSS
notes: scFv VL-linker-VH, made in E. coli; also called Vκ3VH3 capped
B2: Vκ3/VH4 consensus λ-capped, human IL23R specific scFv (scFv)
scFv: DIVLTQSPATLSLSPGERATLSCQASENIYSFLAWYQQKPGQAPRLLIYSASKLAAGVPARFSGSGSGTDFTLTISSLEPEDFAVYYCQQTNRYSNPDIYNVFGGGTKLTVLGGGGGSGGGGSGGGGSGGGGSQVQLQESGPGLVKPSETLSLTCTVSGIDFNSNYYMCWIRQPPGKGLEWIGCIYVGSHVNTYYANWAKGRVTISVDTSKNQFSLKLSSVTAADTAVYYCATSGSSVLYFKFWGQGTLVTVSS
notes: scFv VL-linker-VH, made in E. coli; also called Vκ3VH4 capped
B3: Vκ3/VH5 consensus λ-capped, human IL23R specific scFv (scFv)
scFv: DIVLTQSPATLSLSPGERATLSCQASENIYSFLAWYQQKPGQAPRLLIYSASKLAAGVPARFSGSGSGTDFTLTISSLEPEDFAVYYCQQTNRYSNPDIYNVFGGGTKLTVLGGGGGSGGGGSGGGGSGGGGSEVQLVQSGAEVKKPGESLKISCKGSGIDFNSNYYMCWVRQMPGKGLEWMGCIYVGSHVNTYYANWAKGQVTISADKSISTAYLQWSSLKASDTAMYYCATSGSSVLYFKFWGQGTLVTVSS
notes: scFv VL-linker-VH, made in E. coli; also called Vκ3VH5 capped
B4: Vκ1/VH2 consensus λ-capped, human IL23R specific scFv (scFv)
scFv: DIQMTQSPSSLSASVGDRVTITCQASENIYSFLAWYQQKPGKAPKLLIYSASKLAAGVPSRFSGSGSGTDFTLTISSLQPEDFATYYCQQTNRYSNPDIYNVFGGGTKLTVLGGGGGSGGGGSGGGGSGGGGSQVQLKESGPALVKPTQTLTLTCTFSGIDFNSNYYMCWIRQPPGKALEWLACIYVGSHVNTYYANWAKGRLTISKDTSKNQVVLTMTNMDPVDTATYYCATSGSSVLYFKFWGQGTLVTVSS
notes: scFv VL-linker-VH, made in E. coli; also called Vκ1VH2 capped
B5: Vκ1/VH3 consensus λ-capped, human IL23R specific scFv (scFv)
scFv: DIQMTQSPSSLSASVGDRVTITCQASENIYSFLAWYQQKPGKAPKLLIYSASKLAAGVPSRFSGSGSGTDFTLTISSLQPEDFATYYCQQTNRYSNPDIYNVFGGGTKLTVLGGGGGSGGGGSGGGGSGGGGSEVQLVESGGGLVQPGGSLRLSCAASGIDFNSNYYMCWVRQAPGKGLEWVSCIYVGSHVNTYYANWAKGRFTISRDNSKNTLYLQMNSLRAEDTAVYYCATSGSSVLYFKFWGQGTLVTVSS
notes: scFv VL-linker-VH, made in E. coli; also called Vκ1VH3 capped
B6: Vκ1/VH4 consensus λ-capped, human IL23R specific scFv (scFv)
scFv: DIQMTQSPSSLSASVGDRVTITCQASENIYSFLAWYQQKPGKAPKLLIYSASKLAAGVPSRFSGSGSGTDFTLTISSLQPEDFATYYCQQTNRYSNPDIYNVFGGGTKLTVLGGGGGSGGGGSGGGGSGGGGSQVQLQESGPGLVKPSETLSLTCTVSGIDFNSNYYMCWIRQPPGKGLEWIGCIYVGSHVNTYYANWAKGRVTISVDTSKNQFSLKLSSVTAADTAVYYCATSGSSVLYFKFWGQGTLVTVSS
notes: scFv VL-linker-VH, made in E. coli; also called Vκ1VH4 capped
B7: Vκ1/VH5 consensus λ-capped, human IL23R specific scFv (scFv)
scFv: DIQMTQSPSSLSASVGDRVTITCQASENIYSFLAWYQQKPGKAPKLLIYSASKLAAGVPSRFSGSGSGTDFTLTISSLQPEDFATYYCQQTNRYSNPDIYNVFGGGTKLTVLGGGGGSGGGGSGGGGSGGGGSEVQLVQSGAEVKKPGESLKISCKGSGIDFNSNYYMCWVRQMPGKGLEWMGCIYVGSHVNTYYANWAKGQVTISADKSISTAYLQWSSLKASDTAMYYCATSGSSVLYFKFWGQGTLVTVSS
notes: scFv VL-linker-VH, made in E. coli; also called Vκ1VH5 capped
B8: Vκ1/VH6 consensus λ-capped, human IL23R specific scFv (scFv)
scFv: DIQMTQSPSSLSASVGDRVTITCQASENIYSFLAWYQQKPGKAPKLLIYSASKLAAGVPSRFSGSGSGTDFTLTISSLQPEDFATYYCQQTNRYSNPDIYNVFGGGTKLTVLGGGGGSGGGGSGGGGSGGGGSQVQLQQSGPGLVKPSQTLSLTCAISGIDFNSNYYMCWIRQSPGRGLEWLGCIYVGSHVNTYYANWAKGRITINPDTSKNQFSLQLNSVTPEDTAVYYCATSGSSVLYFKFWGQGTLVTVSS
notes: scFv VL-linker-VH, made in E. coli; also called Vκ1VH6 capped
B9: Vκ2/VH1A consensus λ-capped, human IL23R specific scFv (scFv)
scFv: DIVMTQSPLSLPVTPGEPASISCQASENIYSFLAWYLQKPGQSPQLLIYSASKLAAGVPDRFSGSGSGTDFTLKISRVEAEDVGVYYCQQTNRYSNPDIYNVFGGGTKLTVLGGGGGSGGGGSGGGGSGGGGSQVQLVQSGAEVKKPGSSVKVSCKASGIDFNSNYYMCWVRQAPGQGLEWMGCIYVGSHVNTYYANWAKGRVTITADESTSTAYMELSSLRSEDTAVYYCATSGSSVLYFKFWGQGTLVTVSS
notes: scFv VL-linker-VH, made in E. coli; also called Vκ2VH1A capped
B10: Vκ2/VH3 consensus λ-capped, human IL23R specific scFv (scFv)
scFv: DIVMTQSPLSLPVTPGEPASISCQASENIYSFLAWYLQKPGQSPQLLIYSASKLAAGVPDRFSGSGSGTDFTLKISRVEAEDVGVYYCQQTNRYSNPDIYNVFGGGTKLTVLGGGGGSGGGGSGGGGSGGGGSEVQLVESGGGLVQPGGSLRLSCAASGIDFNSNYYMCWVRQAPGKGLEWVSCIYVGSHVNTYYANWAKGRFTISRDNSKNTLYLQMNSLRAEDTAVYYCATSGSSVLYFKFWGQGTLVTVSS
notes: scFv VL-linker-VH, made in E. coli; also called Vκ2VH3 capped
B11: Vκ2/VH4 consensus λ-capped, human IL23R specific scFv (scFv)
scFv: DIVMTQSPLSLPVTPGEPASISCQASENIYSFLAWYLQKPGQSPQLLIYSASKLAAGVPDRFSGSGSGTDFTLKISRVEAEDVGVYYCQQTNRYSNPDIYNVFGGGTKLTVLGGGGGSGGGGSGGGGSGGGGSQVQLQESGPGLVKPSETLSLTCTVSGIDFNSNYYMCWIRQPPGKGLEWIGCIYVGSHVNTYYANWAKGRVTISVDTSKNQFSLKLSSVTAADTAVYYCATSGSSVLYFKFWGQGTLVTVSS
notes: scFv VL-linker-VH, made in E. coli; also called Vκ2VH4 capped
B12: Vκ2/VH5 consensus λ-capped, human IL23R specific scFv (scFv)
scFv: DIVMTQSPLSLPVTPGEPASISCQASENIYSFLAWYLQKPGQSPQLLIYSASKLAAGVPDRFSGSGSGTDFTLKISRVEAEDVGVYYCQQTNRYSNPDIYNVFGGGTKLTVLGGGGGSGGGGSGGGGSGGGGSEVQLVQSGAEVKKPGESLKISCKGSGIDFNSNYYMCWVRQMPGKGLEWMGCIYVGSHVNTYYANWAKGQVTISADKSISTAYLQWSSLKASDTAMYYCATSGSSVLYFKFWGQGTLVTVSS
notes: scFv VL-linker-VH, made in E. coli; also called Vκ2VH5 capped
B13: Vκ2/VH6 consensus λ-capped, human IL23R specific scFv (scFv)
scFv: DIVMTQSPLSLPVTPGEPASISCQASENIYSFLAWYLQKPGQSPQLLIYSASKLAAGVPDRFSGSGSGTDFTLKISRVEAEDVGVYYCQQTNRYSNPDIYNVFGGGTKLTVLGGGGGSGGGGSGGGGSGGGGSQVQLQQSGPGLVKPSQTLSLTCAISGIDFNSNYYMCWIRQSPGRGLEWLGCIYVGSHVNTYYANWAKGRITINPDTSKNQFSLQLNSVTPEDTAVYYCATSGSSVLYFKFWGQGTLVTVSS
notes: scFv VL-linker-VH, made in E. coli; also called Vκ2VH6 capped
B14: Vκ3/VH1A consensus λ-capped, human IL23R specific scFv (scFv)
scFv: DIVLTQSPATLSLSPGERATLSCQASENIYSFLAWYQQKPGQAPRLLIYSASKLAAGVPARFSGSGSGTDFTLTISSLEPEDFAVYYCQQTNRYSNPDIYNVFGGGTKLTVLGGGGGSGGGGSGGGGSGGGGSQVQLVQSGAEVKKPGSSVKVSCKASGIDFNSNYYMCWVRQAPGQGLEWMGCIYVGSHVNTYYANWAKGRVTITADESTSTAYMELSSLRSEDTAVYYCATSGSSVLYFKFWGQGTLVTVSS
notes: scFv VL-linker-VH, made in E. coli; also called Vκ3VH1A capped
B15: Vκ3/VH1B consensus λ-capped, human IL23R specific scFv (scFv)
scFv: B14 scFv with S149A, I205M, A207R, E209T, T211I
notes: scFv VL-linker-VH, made in E. coli; also called Vκ3VH1B capped

The binders below were run against T1, human interleukin-23 receptor (IL23R) (human, UniProt Q5VWK5 24-355, limits assumed) (assay: SPR, scFv (summary table)).
T1 construct: also called human IL23R
T1 sequence (looked up): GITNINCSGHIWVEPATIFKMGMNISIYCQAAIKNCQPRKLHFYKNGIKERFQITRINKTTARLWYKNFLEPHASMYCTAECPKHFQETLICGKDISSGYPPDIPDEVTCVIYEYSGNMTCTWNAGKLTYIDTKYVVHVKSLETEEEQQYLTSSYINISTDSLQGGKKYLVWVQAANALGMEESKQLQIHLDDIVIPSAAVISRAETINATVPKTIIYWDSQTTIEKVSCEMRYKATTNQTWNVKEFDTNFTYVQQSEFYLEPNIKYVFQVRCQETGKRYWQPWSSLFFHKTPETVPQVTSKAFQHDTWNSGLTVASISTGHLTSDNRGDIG
In short: (§1)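 Humanized rabbit variable domains were made as single-chain variable fragments (scFv) on consensus germline framework pairs, with or without a λ-cap (Vκ framework IV replaced by a Vλ germline sequence). They were expressed in E. coli as inclusion bodies, solubilized and refolded in a generic refolding buffer. Affinity for human IL23R was measured by surface plasmon resonance, giving rate constants and dissociation constant, or the λ-capped over uncapped dissociation-constant ratio.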

Row | Binder | Kd [nM]
1 | B1 | 0.022
2 | B2 | 0.123
3 | B3 | 0.864
4 | B4 | 0.0731
5 | B5 | 0.0137
6 | B6 | 0.0455
7 | B7 | 0.398
8 | B8 | 0.245
9 | B9 | 0.0772
10 | B10 | 0.0397
11 | B11 | 0.0481
12 | B12 | 0.476
13 | B13 | 0.887
14 | B14 | 0.585
15 | B15 | 0.181

What follows are binders tested against T1, human interleukin-23 receptor (IL23R) (assay: SPR; KD of the capped scFv over KD of its uncapped counterpart).
In short: as §1

Row | Binder | Ratio (capped/uncapped) of KD
16 | B1 | 0.6
17 | B2 | 0.9
18 | B3 | 1.6
19 | B4 | 0.3
20 | B5 | 0.4
21 | B6 | 0.5
22 | B7 | 1.7
23 | B8 | 1
24 | B9 | 0.3
25 | B10 | 1.7
26 | B11 | 0.4
27 | B12 | 1.6
28 | B13 | 0.3
29 | B14 | 2
30 | B15 | 0.4

Each binder was assayed against T1, human interleukin-23 receptor (IL23R) (assay: SPR, scFv).
In short: as §1

Row | Binder | Kd [nM] | koff [s⁻¹] | kon [M⁻¹ s⁻¹]
31 | B1 | 0.022 | 6.38e-05 | 2.89e+06
32 | B2 | 0.123 | 0.000288 | 2.35e+06
33 | B3 | 0.864 | 0.0013 | 1.5e+06
34 | B4 | 0.0731 | 0.000128 | 1.76e+06
35 | B5 | 0.0137 | 5.43e-05 | 3.95e+06
36 | B6 | 0.0455 | 0.000191 | 4.2e+06
37 | B7 | 0.398 | 0.000671 | 1.69e+06
38 | B8 | 0.245 | 0.000349 | 1.42e+06
39 | B9 | 0.0772 | 0.000184 | 2.39e+06
40 | B10 | 0.0397 | 7.77e-05 | 1.95e+06
41 | B11 | 0.0481 | 0.000112 | 2.33e+06
42 | B12 | 0.476 | 0.000715 | 1.5e+06
43 | B13 | 0.887 | 0.000475 | 535000
44 | B14 | 0.585 | 0.00117 | 2e+06
45 | B15 | 0.181 | 0.000506 | 2.8e+06
